Test results from patent US20230203146A1.
Substitutions are numbered along the chain they refer to. Read-outs that look alike come from different tables or passages of the source. One block for each binder: values may come before it.

Key:
[1] = molecular target: FLAG tagged human Ang2 (Alexis Biochemicals) (human) (UniProt O15123); assay: AlphaScreen competition, periplasmic extract, FLAG-hAng2 / biotin-hTie2/Fc
[2] = molecular target: FLAG tagged human Ang2 (Alexis Biochemicals) (human) (UniProt O15123); assay: competition ELISA, periplasmic extract, FLAG-hAng2 on hTie2/Fc
[3] = molecular target: FLAG tagged human Ang2 (Alexis Biochemicals) (human) (UniProt O15123); assay: competition ELISA, FLAG-hAng2 (0.02 nM) on coated hTie2/Fc
[4] = molecular target: FLAG-tagged recombinant human Ang1 (human) (UniProt Q15389); assay: ratio of IC50s in hAng1/hTie2 and hAng2/hTie2 competition ELISA
[5] = molecular target: FLAG-tagged human Ang2 (human) (UniProt O15123); assay: competition ELISA: FLAG-hAng2 binding to coated hTie2-Fc
[6] = molecular target: FLAG-tagged human Ang2 (human) (UniProt O15123); assay: as above; remark: listed apart in the source

Chain of FLAG-tagged recombinant human Ang1 (human) (Q15389 20-498 limits assumed): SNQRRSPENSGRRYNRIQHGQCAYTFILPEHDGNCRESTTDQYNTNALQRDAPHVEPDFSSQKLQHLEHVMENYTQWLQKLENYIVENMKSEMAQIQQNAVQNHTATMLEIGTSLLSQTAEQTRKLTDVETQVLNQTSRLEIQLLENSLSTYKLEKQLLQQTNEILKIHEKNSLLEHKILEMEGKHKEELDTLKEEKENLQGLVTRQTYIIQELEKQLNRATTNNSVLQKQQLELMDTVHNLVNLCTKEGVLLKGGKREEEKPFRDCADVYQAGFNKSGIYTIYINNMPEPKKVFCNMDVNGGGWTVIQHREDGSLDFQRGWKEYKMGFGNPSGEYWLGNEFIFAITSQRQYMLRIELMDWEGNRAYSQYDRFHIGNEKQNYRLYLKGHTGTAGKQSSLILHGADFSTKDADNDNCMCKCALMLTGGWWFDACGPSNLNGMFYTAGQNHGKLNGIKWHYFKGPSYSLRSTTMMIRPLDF
Chain of FLAG tagged human Ang2 (Alexis Biochemicals) (human) (O15123 19-496): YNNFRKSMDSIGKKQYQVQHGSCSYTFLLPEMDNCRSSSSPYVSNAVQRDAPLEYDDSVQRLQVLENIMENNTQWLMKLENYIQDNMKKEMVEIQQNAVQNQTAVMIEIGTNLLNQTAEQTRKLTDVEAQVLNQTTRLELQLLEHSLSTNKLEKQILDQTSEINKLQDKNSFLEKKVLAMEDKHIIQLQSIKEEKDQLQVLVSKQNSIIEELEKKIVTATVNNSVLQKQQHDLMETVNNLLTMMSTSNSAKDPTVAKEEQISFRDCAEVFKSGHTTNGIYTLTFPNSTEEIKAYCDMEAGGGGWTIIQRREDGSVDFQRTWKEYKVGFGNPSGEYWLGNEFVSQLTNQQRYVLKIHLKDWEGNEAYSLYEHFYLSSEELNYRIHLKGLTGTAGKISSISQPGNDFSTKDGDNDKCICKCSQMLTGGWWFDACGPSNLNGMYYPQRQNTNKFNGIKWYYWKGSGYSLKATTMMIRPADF
Chain of FLAG-tagged human Ang2 (human) (O15123 19-496): as above

- % inh [1]: 72%
- % inh [2]: 0%
B1: VHH 15A06 (VHH, not shown: small tags and cut ends)
VHH: EVQLVESGGGLVQAGGSLRLSCAASGRTFSSYAMGWFRQAPGKEREFVARISWNGGSTYHADSVKGRFTISRDNPKNTVYLQMDSLKPEDAAIYYCAASIALVGGVTPHSYDYWGQGTQVTVSS

- IC50 [3]: 4.6 nM
B2: VHH 12B03 (VHH, not shown: small tags and cut ends)
VHH: EVQLVESGGGLVQSGGSLRLSCAASGFALDYYTIGWFRQAPGKEREGVSCISGGDTSTYYADSVKGRFTISRDNAKNTVYLQMNSLKPEDTAVYYCATDSAGVPAGPAAVYGSTCSRLEYDYWGQGAQVTVSS

- % inh [1]: 74%
- % inh [2]: 74%
B3: VHH 19A03 (VHH, not shown: small tags and cut ends)
VHH: EVQLVESGGGLVQAGGSLRLSCAASGFTFDDYAIAWFRQAPGKEREGISCITPSDDRTYYADSVKGRFIISSDNAKNTVYLQMNSLKPEDTADYYCAAVPRLRGLGYWPYPEYEYDYWGQGTQVTVSS

- IC50 [3]: 2.8 nM
B4: VHH 2F04 (VHH, not shown: small tags and cut ends)
VHH: EVQLVESGGGLVQAGGSLRLSCAASGFAFDDHLIGWFRQAPGKEREAVSCISRSAGSTYYADSVKGRFTISSDNAKNTVYLQMNSLKADDTAVYYCAAGPAWGRPASPLPYEYDYWGQGTQVTVSS

- IC50 [3]: 11.3 nM
B5: VHH 16G09 (VHH, not shown: small tags and cut ends)
VHH: EVQLVESGGGLVQAGGSLRLVCSASGIDFSINAMAWYRQAPGKQREWVAFMINDSSTDYTDSVKGRFTISRDSTKNILYLQMNNLNVEDTAVYYCNTAYEQHTYWGQGTQVTVSS

- IC50 [3]: 64.4 nM
B6: VHH 14H02 (VHH, not shown: small tags and cut ends)
VHH: EVQLVESGGGLVQAGGSLRLSCAASGFTFDEYAIGWFRQAPGKEREGVSYISSSDGSTYYADSVKGRVTSSSDNAKNTVYLQMNSLKPEDTAVYYCAARPTLRVRLDNDRHHLLYEYEYDYWGQGTQVTVSS

- hAng1/hAng2 IC50 ratio [4]: > 192000
- IC50 [5]: 0.045 nM
B7: VHH 00908 (VHH, not shown: small tags and cut ends)
VHH: EVQLVESGGGLVQPGGSLRLSCAASGITLDDYAIGWFRQAPGKEREGVSSIRDNGGSTYYADSVKGRFTISSDNSKNTVYLQMNSLRPEDTAVYYCAAVPAGRLRYGEQWYPIYEYDAWGQGTLVTVSS

- IC50 [6]: 0.6 nM
B8: VHH 00041 (VHH, not shown: small tags and cut ends)
VHH: B7 VHH with I27F, G55D, S75A, Y106F, I113L

- hAng1/hAng2 IC50 ratio [4]: > 7730
- IC50 [5]: 1.3 nM
B9: VHH 00956 (VHH, not shown: small tags and cut ends)
VHH: B7 VHH with I27F, S50A, D53S, N54S, Y106F, I113L

- IC50 [6]: 10.7 nM
B10: VHH 00053 (VHH, not shown: small tags and cut ends)
VHH: B7 VHH with I27F, G55D, S72R, S75D, Y106F, I113L

- hAng1/hAng2 IC50 ratio [4]: > 180000
- IC50 [5]: 0.056 nM
B11: VHH 00933 (VHH, not shown: small tags and cut ends)
VHH: B7 VHH with S50A

- IC50 [6]: 9.5 nM
B12: VHH 00043 (VHH, not shown: small tags and cut ends)
VHH: B7 VHH with I27F, G55D, S72R, S75A, Y106F, I113L

- IC50 [6]: 1 nM
B13: VHH 00052 (VHH, not shown: small tags and cut ends)
VHH: B7 VHH with I27F, G55D, S75D, Y106F, I113L

- hAng1/hAng2 IC50 ratio [4]: > 201000
- IC50 [5]: 0.05 nM
B14: VHH 00938 (VHH, not shown: small tags and cut ends)
VHH: B7 VHH with A24V, S50A, D53S, N54S

- hAng1/hAng2 IC50 ratio [4]: > 206000
- IC50 [5]: 0.049 nM
B15: VHH 00932 (VHH, not shown: small tags and cut ends)
VHH: B7 VHH with A24V

- IC50 [6]: 0.6 nM
B16: VHH 00048 (VHH, not shown: small tags and cut ends)
VHH: B7 VHH with P14A, I27F, N54S, G55D, S75D, R87K, Y106F, I113L

- hAng1/hAng2 ratio [4]: > 11200
- IC50 [5]: 0.9 nM
B17: VHH 00919 (VHH, not shown: small tags and cut ends)
VHH: B7 VHH with I27F, S50A, Y106F, I113L

- hAng1/hAng2 IC50 ratio [4]: > 157000
- IC50 [5]: 0.064 nM
B18: VHH 00934 (VHH, not shown: small tags and cut ends)
VHH: B7 VHH with S50A, D53E, N54S

- hAng1/hAng2 IC50 ratio [4]: > 224000
- IC50 [5]: 0.045 nM
B19: VHH 00936 (VHH, not shown: small tags and cut ends)
VHH: B7 VHH with A24V, S50A

- IC50 [6]: 9.5 nM
B20: VHH 00054 (VHH, not shown: small tags and cut ends)
VHH: B7 VHH with I27F, G55D, S72R, Y106F, I113L

- IC50 [6]: 2.1 nM
B21: VHH 00025 (VHH, not shown: small tags and cut ends)
VHH: B7 VHH with P14A, I27F, S50T, N54S, G55D, S75D, R87K, Y106F, I113L

- IC50 [5]: 0.7 nM
B22: VHH 00923 (VHH, not shown: small tags and cut ends)
VHH: B7 VHH with E1D, I27F, S50A, Y106F, I113L

- hAng1/hAng2 IC50 ratio [4]: > 146000
- IC50 [5]: 0.068 nM
B23: VHH 00935 (VHH, not shown: small tags and cut ends)
VHH: B7 VHH with S50A, D53S, N54S

- hAng1/hAng2 IC50 ratio [4]: > 186000
- IC50 [5]: 0.054 nM
B24: VHH 00937 (VHH, not shown: small tags and cut ends)
VHH: B7 VHH with A24V, S50A, D53E, N54S

- IC50 [3]: 9.1 nM
B25: VHH 3F02 (VHH, not shown: small tags and cut ends)
VHH: EVQLVESGGGLVQVGDSLRLACAASGRTFSTYLMVGWFRQAPGKEREFAAGIWSSGDTAYADSVKGRFTISRDNAKNTVYLQMNSLKTEDTAVYYCAGSYDGNYYIPGFYKDWGQGTQVTVSS

- % inh [1]: 96%
- % inh [2]: 100%
B26: VHH 22G11 (VHH, not shown: small tags and cut ends)
VHH: EVQLVESGGGLVQAGGSLRLSCAVSGFTFDDYAIGWFRQAPGKEREGVSCISRSDGSPYYADSVKGRFTISSDNAKGTVYLQMSSLKPEDTAVYYCAASWSGAYYSGTYYCDRLYEYDAWGQGTQVTVSS

- IC50 [3]: 6.2 nM
B27: VHH 21G10 (VHH, not shown: small tags and cut ends)
VHH: EVQLVESGGGLVQAGGSLRLSCAASGFTLDDYAIGWFRQAPGKEREGVSCISSSDGSTTYADSVKGRFTVSSDNAKNTVYLQMNSLKPEDTAVYYCAAGLRGRYYRGTYSLVCAPYEYDFWGQGTQVTVSS

- IC50 [3]: 21 nM
B28: VHH 3A07 (VHH, not shown: small tags and cut ends)
VHH: EVQLVESGGGLVQPGGSLRLSCAASGFTLDYDAIGWFRQAPGKEREGVSCITSSDGITYYADSVKGRFTISRDNAKNTVYLQMNSLKPEDTAVYYCATGNRRIYYSDYALACFPYEYDYWGQGTQVTVSS

- IC50 [3]: 11 nM
- % inh [1]: 73%
- % inh [2]: 78%
B29: VHH 22C07 (VHH, not shown: small tags and cut ends)
VHH: EVQLVESGGGLVQAGGSLRLSCAASGFTFDDYAIGWFRQAPGKEREGVSCISSSDGSTYYADSVKGRFTISSDNAKNTVYLQMNSLKPEDTAVYYCAADFIISSKRLCLDLFGSRGQGTQVTVSS

- IC50 [3]: 30.2 nM
- % inh [1]: 57%
- % inh [2]: 67%
B30: VHH 8A11 (VHH, not shown: small tags and cut ends)
VHH: EVQLVESGGGLVQAGGSLRLSCAASGRTFSSYAMGWFRQAPGKELEFVTAVSWSGGSTYYADSVKGRFTISRDSAKNTVYLQMNSLKPEDTAVYYCAAQSTIVEVTTLEAYDYWGQGTQVTVSS

- % inh [1]: 57%
- % inh [2]: 37%
B31: VHH 23C10 (VHH, not shown: small tags and cut ends)
VHH: EVQLVESGGGLVQPGGSLRLSCAASGFALDYYAIGWFRQAPGKEREGVSCISSSDGSTYYADSVKGRFTISRDNAKNTVYLQMNSLKPEDTAVYYCATDSLGYGSSCRMAPYEYDYWGQGTQVTVSS

- % inh [1]: 61%
- % inh [2]: 5%
B32: VHH 25B01 (VHH, not shown: small tags and cut ends)
VHH: EVQLVESGGGLVQAGGSLRLSCAASGFTFDDYAIGWFRQAPGKEREGVSCISSSDGSTYYADSVKGRFTISSDNAKNTVYLQMNSLKPEDTAVYYCAAAWGASRLPIGTMPPYEYDYWGQGTQVTVSS

- % inh [1]: 55%
- % inh [2]: 39%
B33: VHH 2G01 (VHH, not shown: small tags and cut ends)
VHH: EVQLVESGGGLVQAGGSLRLSCAASGRTISSYAMAWFRQAPGKEREFVAAISLSGDSTYYADSVKGRFTISRDNAKNTVYLQMNSLKPEDTAEYYCAATDWDFEDIPEYYCSGYGCDESLFDSWGQGTQVTVSS

- IC50 [3]: 18.6 nM
- % inh [1]: 57%
- % inh [2]: 82%
B34: VHH 15H04 (VHH, not shown: small tags and cut ends)
VHH: EVQLVESGGGLVQAGGSLGLSCAASERTLPSYVMGWFRQAPGKELEFVAGISWSSGRTYYTDSVKGRFTISRDAAENTWYLQMNSLKPEDTAVYYCASNSVSEPTLHTWQYEASYDYWGQGTQVTVSS

- IC50 [3]: 7.7 nM
B35: VHH 10C06 (VHH, not shown: small tags and cut ends)
VHH: EVQLVESGGGLVQAGGSLRLSCVASGFTFDDYAIGWFRQAPGKEREGVSCISSSDGSTYYADSVKGRFTISGDNAKNTVYLQMNSLKPEDTAVYYCAAGITPCSDYTQTYEYDVWGQGTQVTVSS

- IC50 [3]: 5.3 nM
B36: VHH 6H05 (VHH, not shown: small tags and cut ends)
VHH: EVQLVESGGGLVQAGGSLRLSCAASGFTFDDYAIGWFRQAPGKEREGVSCISSSDGSTAYADSVKGRFTISSDNAKNTVYLQMNSLKPEDTAVYYCTAVPATRRTPQMVAANVCWLAEYEYDYWGQGTQVTVSS

- % inh [1]: 67%
- % inh [2]: 0%
B37: VHH 10A03 (VHH, not shown: small tags and cut ends)
VHH: EVQLVESGGGSVQAGGSLRLSCAASERTFSPYAMGWFRQAPGKEREFVAHITWSAGSTYYADSVKGRFTISRDNAKNTVYLQMNSLKPEDTAVYYCAAKRRYGIVDRDYNDWGQGTQVTVSS
